Experimental data from patent publication US20240294963.

Tests used:
Interferon-gamma (IFNγ) = Interferon-gamma (IFNγ) (UniProt P01579)
[1] = system: T1, peptide with the sequence TNYS found in IFNγ
T1 sequence: TNYS

[2] = system: constant region (Fc) of a human immunoglobulin antibody (IgG1) [IgG part: P01857]
[3] = system: T2, peptide with the YNST sequence from Fc
T2 sequence: YNST

[4] = system: T3, peptide with the LNLS sequence from GM-CSF
T3 sequence: LNLS

[5] = molecular target: Granulocyte-Macrophage Colony-Stimulating Factor (GM-CSF) (UniProt P04141)
Sequence of Granulocyte-Macrophage Colony-Stimulating Factor (GM-CSF) (P04141 18-144): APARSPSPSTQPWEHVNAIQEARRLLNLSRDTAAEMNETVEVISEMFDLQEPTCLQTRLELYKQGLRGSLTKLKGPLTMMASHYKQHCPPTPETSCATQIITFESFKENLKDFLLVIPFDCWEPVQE

Sequence of Interferon-gamma (IFNγ) (P01579 24-166): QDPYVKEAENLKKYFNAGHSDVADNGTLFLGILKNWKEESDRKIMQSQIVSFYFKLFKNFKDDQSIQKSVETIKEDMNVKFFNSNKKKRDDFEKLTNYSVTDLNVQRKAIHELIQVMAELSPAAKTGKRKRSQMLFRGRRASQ

ApQ mutant A469I
protein modification (glycosylation), LC-qTOF of tryptic peptides (Interferon-gamma (IFNγ)): increase the modification of the therapeutic proteins IFNγ GM-CSF, and Fc using the A469I, T438S, and H495D mutants of ApQ, respectively | peptide modification (glycosylation), SAMDI-MS [1]: the purified A469I mutant glycosylated the sequence TNYS found in IFNγ more efficiently than did ApQ

Q469A mutant of Actinobacillus pleuropneumoniae N-glycosyltransferase (ApNGT)
protein modification (glycosylation), LC-qTOF of tryptic peptides (Interferon-gamma (IFNγ)): ApQ showed no detectable modification of IFNγ (marked as "ND") | glycosylation efficiency of Fc, 2 µM ApQ added after CFPS [2]: the glycosylation efficiency of Fc was increased from 15% to 46% | glycosylation efficiency of Fc, 2 µM ApQ added before CFPS [2]: the glycosylation efficiency of Fc was increased from 15% to 46%

ApQ mutant H495D
modification of Fc relative to ApQ, 2 µM H495D added before CFPS [2]: significantly increased the modification of Fc to 60% or by 1.3-fold | modification of Fc, 2 µM H495D added before CFPS [2]: significantly increased the modification of Fc to 60% or by 1.3-fold | modification of Fc, 5 µM H495D during CFPS [2]: 80% modification of Fc could be achieved | peptide modification (glycosylation), SAMDI-MS [3]: H495D glycosylated the YNST sequence from Fc more efficiently than did ApQ

ApQ mutant T438S
peptide modification (glycosylation), SAMDI-MS [4]: T438S glycosylated the LNLS sequence from GM-CSF more efficiently than did ApQ | protein modification (glycosylation), LC-qTOF of tryptic peptides [5]: increase the modification of the therapeutic proteins IFNγ GM-CSF, and Fc using the A469I, T438S, and H495D mutants of ApQ, respectively
